# Data taken from patent US20070099837A1.
# Target: human zFGF5 (human) (UniProt O76093)
# Assay: cell-based or functional assay
# Chain of human zFGF5 (human) (O76093 28-207): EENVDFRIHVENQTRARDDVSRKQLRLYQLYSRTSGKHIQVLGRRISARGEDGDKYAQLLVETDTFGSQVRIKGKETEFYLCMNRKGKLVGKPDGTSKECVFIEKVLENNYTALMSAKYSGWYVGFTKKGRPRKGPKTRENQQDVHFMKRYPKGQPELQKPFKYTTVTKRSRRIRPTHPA
"Cell Proliferation (percent of control), BAF3 cells expressing FGFR3α-IIIc with zFGF5, soluble receptor at 0 fold-excess (percent of control)","Cell Proliferation (percent of control), BAF3 cells expressing FGFR3α-IIIc with zFGF5, soluble receptor at 62.5 fold-excess (percent of control)","Cell Proliferation (percent of control), BAF3 cells expressing FGFR3α-IIIc with zFGF5, soluble receptor at 125 fold-excess (percent of control)","Cell Proliferation (percent of control), BAF3 cells expressing FGFR3α-IIIc with zFGF5, soluble receptor at 250 fold-excess (percent of control)","Cell Proliferation (percent of control), BAF3 cells expressing FGFR3α-IIIc with zFGF5, soluble receptor at 500 fold-excess (percent of control)","Cell Proliferation (percent of control), BAF3 cells expressing FGFR3α-IIIc with zFGF5, soluble receptor at 1000 fold-excess (percent of control)","Cell Proliferation (percent of control), BAF3 cells expressing FGFR3α-IIIc with zFGF5, soluble receptor at 0.8 fold-excess (percent of control)","Cell Proliferation (percent of control), BAF3 cells expressing FGFR3α-IIIc with zFGF5, soluble receptor at 1.6 fold-excess (percent of control)","Cell Proliferation (percent of control), BAF3 cells expressing FGFR3α-IIIc with zFGF5, soluble receptor at 3.2 fold-excess (percent of control)","Cell Proliferation (percent of control), BAF3 cells expressing FGFR3α-IIIc with zFGF5, soluble receptor at 6.3 (printed 6..3) fold-excess (percent of control)","Cell Proliferation (percent of control), BAF3 cells expressing FGFR3α-IIIc with zFGF5, soluble receptor at 12.5 fold-excess (percent of control)","Cell Proliferation (percent of control), BAF3 cells expressing FGFR3α-IIIc with zFGF5, soluble receptor at 25 fold-excess (percent of control)","Cell Proliferation (percent of control), BAF3 cells expressing FGFR3α-IIIc with zFGF5, soluble receptor at 50 fold-excess (percent of control)","Cell Proliferation (percent of control), BAF3 cells expressing FGFR3α-IIIc with zFGF5, soluble receptor at 100 fold-excess (percent of control)",Substance
100,101,90,91,101,99,,,,,,,,,FGFR2α-IIIb/Fc soluble receptor (from UniProt P21802 22-378) (Fc fusion)
100,,,,,,85,66,37,5,1,0.2,0,0,FGFR3α-IIIc/Fc soluble receptor (Fc fusion)
